Data taken from US20150344570A1 (published 2015).

T1: FcγRIIb (human, UniProt P31994 43-217)
T1 construct: extracellular domain; Soluble His-tagged extracellular domain expressed in FreeStyle293 cells; analyte in Biacore; also called FcgRIIb; 2b; not shown: His tag attached to the C terminus
T1 sequence (looked up): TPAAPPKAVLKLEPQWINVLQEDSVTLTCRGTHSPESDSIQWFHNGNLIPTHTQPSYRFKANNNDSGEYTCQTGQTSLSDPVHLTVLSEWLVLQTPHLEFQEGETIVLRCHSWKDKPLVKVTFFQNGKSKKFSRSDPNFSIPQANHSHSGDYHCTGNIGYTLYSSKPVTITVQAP

T2: FcγRIIa R (human, UniProt P12318 34-217)
T2 construct: extracellular domain; Soluble His-tagged extracellular domain expressed in FreeStyle293 cells; analyte in Biacore; also called FcgRIIa R; FcgRIIaR; not shown: His tag attached to the C terminus
T2 sequence (looked up): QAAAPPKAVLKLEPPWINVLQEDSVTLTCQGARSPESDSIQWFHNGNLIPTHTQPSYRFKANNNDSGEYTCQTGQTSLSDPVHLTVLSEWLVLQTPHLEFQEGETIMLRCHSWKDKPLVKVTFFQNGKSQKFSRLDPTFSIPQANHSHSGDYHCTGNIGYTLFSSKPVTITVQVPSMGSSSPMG


What was measured:
FcγRIIb = molecular target: T1, FcγRIIb; experiment: SPR (Biacore), antibody captured via antigen peptide, FcγR as analyte
Method: (§1) The heterodimerized antibodies He Abs in which one of the H chains was introduced with an alteration were assayed for their binding activities to each activating FcγR and inhibitory FcγR according to the method described in Example 4. […] The activating FcγRs in FIGS. 26, 27, 28, and 29 are FcγRIa, FcγRIIa (R), FcγRIIa (H), and FcγRIIIa, respectively.
(§2) Analysis of interaction between objective antibody and the FcγR was carried out using Biacore T100 (GE Healthcare). HBS-EP+ (GE Healthcare) was used as the running buffer, and the measurement temperature was set to 25° C. Chips produced by immobilizing the antigen peptide by the amine coupling method to a Series S Sencor Chip CM5 (GE Healthcare), or alternatively, chips produced by allowing preliminarily biotinylated antigen peptides to interact with and immobilize onto a Series S Sensor Chip SA (certified) (GE Healthcare) were used. Antibodies of interest were captured onto an antigen peptide-immobilized chip, and allowed to interact to each FcγR diluted with running buffer. To regenerate and repeatedly use the chip, the antibodies captured on the chip were washed off by reacting 10 mM glycine-HCl, pH 1.5.

FcγRIIa R [1] = molecular target: T2, FcγRIIa R; experiment: as above
Method: as §1, §2

FcγRIIa R [2] = molecular target: T2, FcγRIIa R; experiment: ratio of He/Con_2aR to He/Con_2b (binding to FcγRIIb as reference); SPR

| He/Con_2b (IIb binding relative to GpH7-A5/GpH7-B3/GpL16-k0) (FcγRIIb) | He/Con_2aR (IIaR binding relative to GpH7-A5/GpH7-B3/GpL16-k0) (FcγRIIa R [1]) | He_2aR/2b (IIaR/IIb) (FcγRIIa R [2]) | Binder |
| --- | --- | --- | --- |
| 19.1 % of control (control = 100) | 26.1 % of control (control = 100) | 1.37 | GpH7-A5/GpH7-B3 variant N325_12R/GpL16-k0 (antibody, human IgG1, kappa, Heterodimerized anti-glypican-3 IgG1 antibody; alteration only in the GpH7-B3 H chain; position in EU numbering; also called He Ab) heavy 1: not shown heavy 2: not shown light: DIVMTQSPLSLPVTPGEPASISCQASESLVHSNRNTYLHWYLQKPGQSPQLLIYKVSNRFSGVPDRFSGSGSGTDFTLKISRVEAEDVGVYYCSQNTHVPPTFGQGTKVEIERTVAAPSVFIFPPSDEQLKSGTASVVCLLNNFYPREAKVQWKVDNALQSGNSQESVTEQDSKDSTYSLSSTLTLSKADYEKHKVYACEVTHQGLSSPVTKSFNRGEC |
| 26 % of control (control = 100) | 42.2 % of control (control = 100) | 1.63 | GpH7-A5/GpH7-B3 variant N325_05P/GpL16-k0 (antibody, human IgG1, kappa, Heterodimerized anti-glypican-3 IgG1 antibody; alteration only in the GpH7-B3 H chain; position in EU numbering; also called He Ab) heavy 1: not shown heavy 2: not shown light: DIVMTQSPLSLPVTPGEPASISCQASESLVHSNRNTYLHWYLQKPGQSPQLLIYKVSNRFSGVPDRFSGSGSGTDFTLKISRVEAEDVGVYYCSQNTHVPPTFGQGTKVEIERTVAAPSVFIFPPSDEQLKSGTASVVCLLNNFYPREAKVQWKVDNALQSGNSQESVTEQDSKDSTYSLSSTLTLSKADYEKHKVYACEVTHQGLSSPVTKSFNRGEC |
| 77.9 % of control (control = 100) | 95.5 % of control (control = 100) | 1.23 | GpH7-A5/GpH7-B3 variant A330_14T/GpL16-k0 (antibody, human IgG1, kappa, Heterodimerized anti-glypican-3 IgG1 antibody; alteration only in the GpH7-B3 H chain; position in EU numbering; also called He Ab) heavy 1: not shown heavy 2: not shown light: DIVMTQSPLSLPVTPGEPASISCQASESLVHSNRNTYLHWYLQKPGQSPQLLIYKVSNRFSGVPDRFSGSGSGTDFTLKISRVEAEDVGVYYCSQNTHVPPTFGQGTKVEIERTVAAPSVFIFPPSDEQLKSGTASVVCLLNNFYPREAKVQWKVDNALQSGNSQESVTEQDSKDSTYSLSSTLTLSKADYEKHKVYACEVTHQGLSSPVTKSFNRGEC |
| 63.7 % of control (control = 100) | 81.1 % of control (control = 100) | 1.27 | GpH7-A5/GpH7-B3 variant A330_18N/GpL16-k0 (antibody, human IgG1, kappa, Heterodimerized anti-glypican-3 IgG1 antibody; alteration only in the GpH7-B3 H chain; position in EU numbering; also called He Ab) heavy 1: not shown heavy 2: not shown light: DIVMTQSPLSLPVTPGEPASISCQASESLVHSNRNTYLHWYLQKPGQSPQLLIYKVSNRFSGVPDRFSGSGSGTDFTLKISRVEAEDVGVYYCSQNTHVPPTFGQGTKVEIERTVAAPSVFIFPPSDEQLKSGTASVVCLLNNFYPREAKVQWKVDNALQSGNSQESVTEQDSKDSTYSLSSTLTLSKADYEKHKVYACEVTHQGLSSPVTKSFNRGEC |

More lines, now with the values behind:

| Binder | He/Con_2b (IIb binding relative to GpH7-A5/GpH7-B3/GpL16-k0) (FcγRIIb) | He/Con_2aR (IIaR binding relative to GpH7-A5/GpH7-B3/GpL16-k0) (FcγRIIa R [1]) | He_2aR/2b (IIaR/IIb) (FcγRIIa R [2]) |
| --- | --- | --- | --- |
| GpH7-A5/GpH7-B3 variant A330_08L/GpL16-k0 (antibody, human IgG1, kappa, Heterodimerized anti-glypican-3 IgG1 antibody; alteration only in the GpH7-B3 H chain; position in EU numbering; also called He Ab) heavy 1: not shown heavy 2: not shown light: DIVMTQSPLSLPVTPGEPASISCQASESLVHSNRNTYLHWYLQKPGQSPQLLIYKVSNRFSGVPDRFSGSGSGTDFTLKISRVEAEDVGVYYCSQNTHVPPTFGQGTKVEIERTVAAPSVFIFPPSDEQLKSGTASVVCLLNNFYPREAKVQWKVDNALQSGNSQESVTEQDSKDSTYSLSSTLTLSKADYEKHKVYACEVTHQGLSSPVTKSFNRGEC | 70.5 % of control (control = 100) | 88.8 % of control (control = 100) | 1.26 |
| GpH7-A5/GpH7-B3 variant A330_07I/GpL16-k0 (antibody, human IgG1, kappa, Heterodimerized anti-glypican-3 IgG1 antibody; alteration only in the GpH7-B3 H chain; position in EU numbering; also called He Ab) heavy 1: not shown heavy 2: not shown light: DIVMTQSPLSLPVTPGEPASISCQASESLVHSNRNTYLHWYLQKPGQSPQLLIYKVSNRFSGVPDRFSGSGSGTDFTLKISRVEAEDVGVYYCSQNTHVPPTFGQGTKVEIERTVAAPSVFIFPPSDEQLKSGTASVVCLLNNFYPREAKVQWKVDNALQSGNSQESVTEQDSKDSTYSLSSTLTLSKADYEKHKVYACEVTHQGLSSPVTKSFNRGEC | 67.1 % of control (control = 100) | 85.6 % of control (control = 100) | 1.27 |
| GpH7-A5/GpH7-B3 variant A330_10E/GpL16-k0 (antibody, human IgG1, kappa, Heterodimerized anti-glypican-3 IgG1 antibody; alteration only in the GpH7-B3 H chain; position in EU numbering; also called He Ab) heavy 1: not shown heavy 2: not shown light: DIVMTQSPLSLPVTPGEPASISCQASESLVHSNRNTYLHWYLQKPGQSPQLLIYKVSNRFSGVPDRFSGSGSGTDFTLKISRVEAEDVGVYYCSQNTHVPPTFGQGTKVEIERTVAAPSVFIFPPSDEQLKSGTASVVCLLNNFYPREAKVQWKVDNALQSGNSQESVTEQDSKDSTYSLSSTLTLSKADYEKHKVYACEVTHQGLSSPVTKSFNRGEC | 70.1 % of control (control = 100) | 86.6 % of control (control = 100) | 1.23 |
| GpH7-A5/GpH7-B3 variant A330_12R/GpL16-k0 (antibody, human IgG1, kappa, Heterodimerized anti-glypican-3 IgG1 antibody; alteration only in the GpH7-B3 H chain; position in EU numbering; also called He Ab) heavy 1: not shown heavy 2: not shown light: DIVMTQSPLSLPVTPGEPASISCQASESLVHSNRNTYLHWYLQKPGQSPQLLIYKVSNRFSGVPDRFSGSGSGTDFTLKISRVEAEDVGVYYCSQNTHVPPTFGQGTKVEIERTVAAPSVFIFPPSDEQLKSGTASVVCLLNNFYPREAKVQWKVDNALQSGNSQESVTEQDSKDSTYSLSSTLTLSKADYEKHKVYACEVTHQGLSSPVTKSFNRGEC | 84.8 % of control (control = 100) | 104 % of control (control = 100) | 1.22 |
